± gives the standard deviation of the averaged measurements.
Legend:
Saccharomyces cerevisiae [1] = assay: protein stability index of tFT-peptide fusion (C-terminal peptide) (PSI (0-1 scale)); higher = more stable (slower turnover)
Experimental: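 MPS profiling in S. cerevisiae of the tFT-X12 degron library: putative degron peptides plus stable controls, 12 aa, fused to the C-terminus of a sfGFP-mCherry timer. Cells are FACS-sorted into 8 mCherry/sfGFP bins and deep-sequenced. PSI runs from 0 (unstable) to 1 (stable). Backgrounds are wild type, das1Δ and doa10Δ at 30 °C, and wild type, das1Δ, cdc34-1 and cdc53-1 at 37 °C; 2-3 technical replicates each.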

Saccharomyces cerevisiae [2] = assay: as above; conditions: genetic background: wild type; temperature: 30 C
[3] = genetic background: cdc34-1, temperature: 37 C
[4] = genetic background: cdc53-1, temperature: 37 C
[5] = genetic background: das1 deletion, temperature: 30 C
[6] = genetic background: das1 deletion, temperature: 37 C
[7] = genetic background: doa10 deletion, temperature: 30 C
[8] = genetic background: wild type, temperature: 30 C
[9] = genetic background: wild type, temperature: 37 C
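Note: PSI is a weighted mean of sequencing reads over stability bins, variants kept only with over 10 reads, mCherry proximal and sfGFP distal, peptide attached via GGGS linker.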

Sequence	protein stability index (Saccharomyces cerevisiae [1]; [3])	protein stability index (Saccharomyces cerevisiae [1]; [4])	protein stability index (Saccharomyces cerevisiae [1]; [5])	protein stability index (Saccharomyces cerevisiae [1]; [6])	protein stability index (Saccharomyces cerevisiae [1]; [7])	protein stability index (Saccharomyces cerevisiae [1]; [8])	protein stability index (Saccharomyces cerevisiae [1]; [9])	protein stability index (Saccharomyces cerevisiae [2])
RAFFLLYCTLWA	0.0997 ± 0.0085	0.204 ± 0.039	0.163 ± 0.027	0.266 ± 0.012	0.132 ± 0.016	0.161 ± 0.025	0.24 ± 0.0077	0.206 ± 0.04
RALYLLALVGVS	0.234 ± 0.0075	0.254 ± 0.02	0.223 ± 0.034	0.371 ± 0.0042	0.169 ± 0.0096	0.214 ± 0.024	0.3484 ± 0.0029	0.362 ± 0.11
RARFMLGVLLST	0.5525 ± 0.0044	0.617 ± 0.033	0.487 ± 0.028	0.5834 ± 0.0054	0.314 ± 0.0056	0.352 ± 0.024	0.49366 ± 3e-05	0.451 ± 0.021
RARLRFASLRAF	0.546 ± 0.015	0.629 ± 0.079	0.64 ± 0.13	0.644 ± 0.029	0.144 ± 0.012	0.122 ± 0.008	0.217 ± 0.018	0.176 ± 0.01
RDRHFKIQTCIM	0.662 ± 0.016	0.721 ± 0.017	0.648 ± 0.02	0.717 ± 0.014	0.24 ± 0.017	0.246 ± 0.039	0.515 ± 0.035	0.388 ± 0.0046
RFCLLFVVAGGV	0.516 ± 0.0057	0.527 ± 0.024	0.343 ± 0.019	0.546 ± 0.0069	0.35 ± 0.035	0.371 ± 0.018	0.516 ± 0.015	0.457 ± 0.017
RFFFFFPCLLAP	0.349 ± 0.011	0.3411 ± 0.001	0.417 ± 0.019	0.525 ± 0.026	0.519 ± 0.025	0.418 ± 0.029	0.486 ± 0.006	0.457 ± 0.048
RFYLFLFFVRST	0.302 ± 0.055	0.4403 ± 0.0022	0.316 ± 0.039	0.5488 ± 0.0049	0.113 ± 0.0039	0.11 ± 0.008	0.131 ± 0.012	0.175 ± 0.0048
RGGVCFVVWCGG	0.46 ± 0.03	0.503 ± 0.095	0.435 ± 0.0077	0.475 ± 0.029	0.4305 ± 0.00076	0.432 ± 0.0053	0.441 ± 0.0061	0.429
RGRLKSSYFILF	0.7 ± 0.032	0.7127 ± 0.0056	0.65 ± 0.013	0.7509 ± 0.0052	0.49 ± 0.0063	0.534 ± 0.047	0.671 ± 0.017	0.497 ± 0.074
RGWNGFWVVVVW	0.216 ± 0.015	0.305 ± 0.03	0.239 ± 0.039	0.4155 ± 0.0011	0.213 ± 0.0046	0.227 ± 0.035	0.368 ± 0.032	0.307 ± 0.0078
RIKVTRRIIIYA	0.335 ± 0.036	0.383 ± 0.07	0.239 ± 0.054	0.446 ± 0.014	0.14 ± 0.0072	0.179 ± 0.022	0.302 ± 0.018	0.299 ± 0.011
RILSLQFILCKR	0.607 ± 0.025	0.649 ± 0.015	0.538 ± 0.024	0.64 ± 0.0078	0.407 ± 0.013	0.414 ± 0.043	0.546 ± 0.019	0.463 ± 0.0058
RLARRGGGWGPG	0.681 ± 0.012	0.7334 ± 0.0049	0.657 ± 0.034	0.706 ± 0.022	0.657 ± 0.034	0.67 ± 0.046	0.7281 ± 0.00042	0.5 ± 0.1
RLELTRIMIVAI	0.06 ± 0.0059	0.08016 ± 0.00021	0.182 ± 0.024	0.214 ± 0.0094	0.109 ± 0.015	0.117 ± 0.028	0.102 ± 0.02	0.207 ± 0.035
RLGIRCLYLRFI	0.406 ± 0.1	0.422 ± 0.052	0.482 ± 0.059	0.5974 ± 0.0019	0.25 ± 0.015	0.216 ± 0.035	0.363 ± 0.016	0.306 ± 0.011
RLLCLARMRGLH	0.6854 ± 0.0031	0.714 ± 0.02	0.631 ± 0.068	0.728 ± 0.037	0.341 ± 0.036	0.337 ± 0.022	0.579 ± 0.024	0.396 ± 0.2
RLMVHQHTIPVR	0.463 ± 0.072	0.54 ± 0.016	0.307 ± 0.037	0.559 ± 0.021	0.276 ± 0.035	0.316 ± 0.0095	0.533 ± 0.0081	0.4449 ± 0.0039
RLVIFITRYLIS	0.337 ± 0.043	0.488 ± 0.066	0.349 ± 0.044	0.562 ± 0.015	0.116 ± 0.03	0.162 ± 0.016	0.275 ± 0.0028	0.2581 ± 0.00054
RLVYSQKRWSLF	0.673 ± 0.07	0.764 ± 0.032	0.653 ± 0.014	0.76378 ± 0.0006	0.167 ± 0.037	0.181 ± 0.032	0.451 ± 0.027	0.24 ± 0.006

Reference: the supplement of paper PMC10724198
